What was measured:
[1] = biological target: GDF15-HIS (ACROBiosystems, CAT #: GD5-H5149) (human) (UniProt Q99988)
[2] = biological target: GDF15-HIS (ACROBiosystems, CAT #: GD5-H5149) (human) (UniProt Q99988); assay: cell-based or functional assay
[3] = biological target: GDF15-HIS (ACROBiosystems, CAT #: GD5-H5149) (human) (UniProt Q99988); assay: ELISA, GDF15-HIS coated
[4] = biological target: GDF15-HIS (ACROBiosystems, CAT #: GD5-H5149) (human) (UniProt Q99988); assay: BLI (ForteBio Octet), antibody immobilised, GDF15 200-6.25 nM
[5] = biological target: GDF15-mFC protein (human; mouse) (UniProt Q99988); assay: blocking ELISA as in Example 4, GFRAL-hIgG1 Fc coated (competitor), GDF15-mFC mixed with antibody
Sequence of GDF15-mFC protein (human; mouse) (Q99988 197-308): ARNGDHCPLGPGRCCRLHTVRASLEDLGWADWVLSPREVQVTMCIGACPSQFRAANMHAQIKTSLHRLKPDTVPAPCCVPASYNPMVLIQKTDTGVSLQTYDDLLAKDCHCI

[6] = biological target: GDF15-mFC protein (human; mouse) (UniProt Q99988); assay: competitive ELISA, GFRAL-HIS coated (competitor), GDF15-mFc 0.3 µg/ml pre-incubated with antibody

Sequence of GDF15-HIS (ACROBiosystems, CAT #: GD5-H5149) (human) (Q99988 197-308 limits assumed): as the sequence (Q99988 197-308) above

B1: Ponsegromab (antibody, INN chains, looked up, V domains shown)
VH: QVQLVQSGAEVKKPGSSVKVSCKASGYTFSSYNIDWVRQAPGQGLEWMGGINPIFGTAFYNQKFQGRVTITADESTSTAYMELSSLRSEDTAVYYCAREAITTVGAMDHWGQGTLVTVSS
VL: EIVLTQSPATLSLSPGERATLSCRTSQSVHNYLAWYQQKPGQAPRLLIYDASTRADGIPARFSGSGSGTDFTLTISSLEPEDFAVYYCQQFWSWPWTFGQGTKVEIK
An EC50 (read off the curve) of GDF15-His for luciferase induction with 0.1 µg/ml antibody present [1] of 0.01 µg/mL, a Bottom (luciferase activity fold, fitted curve), HEK293 SRE-LUC2-cRET-GFRAL reporter cells [2] of 1.07 and an IC50, luciferase in HEK293 SRE-LUC2-cRET-GFRAL reporter cells stimulated with GDF15-His 5 ng/ml [2] of 0.0321 µg/mL were found for B1 in this work. It also gave an EC50 [3] of 0.096 µg/mL, an OD450.Max [3] of 1.1 OD450 and a Kd [4] of under 1 pM. It also gave a koff [4] of under 1e-07 s⁻¹, a kon [4] of 711000 M⁻¹ s⁻¹ and an IC50 [5] of 0.504 µg/mL. The OD450.Max [5] was 1.02 OD450, the IC50 [6] was 0.504 µg/mL and the OD450.Max [6] was 1.02 OD450.

Reference: patent publication US20250092124A1
